# Data as given in the DeepSol protein solubility set.
# Assay: soluble on expression in E. coli; label from the status in PepcDB or PDB records
row,Sequence,soluble on expression in E. coli
1,MAHHHHHHMCSVPISCSSTHTHTPHSLIVMSAPKKVALVTGANRGIGFATARRLGELGFKVLLGARDAKRGEEAVDTLRNDKLDVDLLLMTPTEHTSVEAAVQKVEADYKRLDVLINNAALMDFDNKVFPLNIQRMRDEFEINFFATVDITNSFLPLMLRSSEAPRLVFVSTPLGTHETVDRPQNKYAHPNLTAYKCTKSAVNMYAHNLAKYLENYAEEAGGSAASAKVNCCYPGYVQTDMCFNSTEAHFTPYEGAETSVWLATLPADGPTGGFYHRAQKLPW,soluble
2,MAHHHHHHMDATELKNKGNEEFSAGRYVEAVNYFSKAIQLDEQNSVLYSNRSACFAAMQKYKDALDDADKCISIKPNWAKGYVRRGAALHGMRRYDDAIAAYEKGLKVDPSNSGCAQGVKDVQVAKAREARDPIARVFTPEAFRKIQENPKLSLLMLQPDYVKMVDTVIRDPSQGRLYMEDQRFALTLMYLSGMKIPNDGDGEEEERPSAKAAETAKPKEEKPLTDNEKEALALKEEGNKLYLSKKFEEALTKYQEAQVKDPNNTLYILNVSAVYFEQGDYDKCIAECEHGIEHGRENHCDYTIIAKLMTRNALCLQRQRKYEAAIDLYKRALVEWRNPDTLKKLTECEKEHQKAVEEAYIDPEIAKQKKDEGNQYFKEDKFPEAVAAYTEAIKRNPAEHTSYSNRAAAYIKLGAFNDALKDAEKCIELKPDFVKGYARKGHAYFWTKQYNRALQAYDEGLKVDPSNADCKDGRYRTIMKIQEMASGQSADGDEAARRAMDDPEIAAIMQDSYMQLVLKEMQNDPTRIQEYMKDSGISSKINKLISAGIIRFGQ,soluble
3,MAHHHHHHMDGQSSSPAEPASGSVALLYDYTTANDAPVEVHRAAAGRLACSYRAECLAIENGFGHLMPPCLGTSQSPTRILVATDSLSAIEAFRCPLAMRDRVTEAILIMPLSLVKRGRPVEFIFSPSHCGIPRNEATDEEATISISLPQEGIPIWHVDFLTAVKRLCWKEFQEEAEGAYTARQAFVGVARTPFLISSQK,not soluble
4,MAHHHHHHMDKYGDRKLQEGIYKLNNKKIKGYIPFQSASSIIPKQIRDKGIIEVMKELEKREEELNEKTKNDQEKHKVNKMNLFKSNSMNVKRKHVFSSFKIPRKI,soluble
5,MAHHHHHHMDSASGDGGDGAPASAERHSLKPLRWIEEVRDASQPNAVFLNVYDVRGSSTLLYSVGWGVHHVGVQVYGKEYQYGHRPIGKGIGSVKPHQSPPHTYREQFFLGQTQLSASEVEKLVVAFSDKVEWLGSNYHLVKHNCIDFARAFCEALLPPAVRVEQARRAEEAGLSQKMHMVEVEVDGMRHSVPVLIPHHVDRLARYAAHYLPKSSMQRFDRLESSFFSMSEVPQERGQPTAADPDTNRSTTPTPQPHTRTSH,not soluble
6,MAHHHHHHMEALFYDHAVASTATRQADLRQALQAFLADAASRSAVQLIALFVHIPVPSTVSVASHTASGSRTSSRTSSSREGGSAAARHAATGKAASAASPSPPAASRRRCNAAKLAWCAWEADRRLRQAAEDASEMNKWLAHDDLSASRKAGAGIARSYCRGAFVVAVAFLAPCTRDDIVVYESWQRCTEMCAEASAADVARGSASRTTRMLSPLRHARLIALSLGAPSLLLSWAERPTRCHLDSLLLPHQSLLVDLSWWVATASGSAGTVSDAAAGSRVSNSVLRDIFISDVQRSLKLPKGDSRCAVWISYATLLESLHPQVMGRIDGADGDGVSVDMRVAGSASRRKRGRNTLCGEFSGVDEQAFMMTYARIRHLLSSLNASQAGAVGHTRFLRVVLSYGGPSSALRRQLVHTCSRTEHGVTAVDAALLRTRSLVDVHALFGVLAGQDTVNVYSEAAAFVRTARRRASAGEAAQQRHQRIAVQSARVEVTSSPSSGPPGTEHEGVDSGAGNLCHNAFVERGARALARRLRLWERKRLGKRGKRGVHVRPRDKAARRPMKRGHAGTNDADSERVLVHAVERASRAAATPKTGNKRRAEPLASVDGRPSASATRALLPPQKQRRTDAVAVSPTLATDTALRWSEDVAGSG,not soluble
7,MAHHHHHHMEEEKAGSSELVLAQESAWDKFGSKLKDMPFLNNFFENPILGKLFGETELAAALREMKMYDQNFKLSELMYLFEFVISKHIVESYLIGDEETLRVHCGQSAFNSLNASINERKKKKVYLDTNVLIYKNHELKGAQRMEESSPWFIFTFHTQQINCLKNANDEIIEGNIDDIREVVYTIALSKHPEPEREGLLYPYIVREFAIIGNTPSW,soluble
8,MAHHHHHHMEEQVDLEKALAVAIKAAQSAGNIMLEFYQLRREDTAAKMMRLLKEGGSHTTGELAASPKPTPVDLLDIKTKSSSTDLVTHYDKLCDETIMKILQRFNAKVEDEKRNEPSEAFSFQFITEELTPDTPLTDEPTWIVDPIDGTMSFVHGGCDCCISIGLAIKKQTVLAVVYCPFLSIVQHSVEDLRSTSAVAGELYTAIRGKGTFLNGQPIRVSADALPNTALVAFNYPMGARLSAAEIPSDSAQVGVLKRQKHRKVVEAAGHIREQLAMHPVQGIRSYGSCALILAQVAAGRIDLYMEPAGMVWDVCAGSLLITEAGGVVKNMWGGDFGLEGTTTIIAAANETLADYGIQLCTQVNYGDYWKK,soluble
9,MAHHHHHHMEPHMTSLVLRRDLSLEVPKLLIGAVQPYQTLAGPALTTSFLHQPDLLPFQRTAFSHAAVAPLYFHTLLHTLAEFAETPRAVQYSAVKLRHAPKADFWDSVGTLNCFYYSAHAPYGAPVEASVLDQHPAMGAVELVRPGHRMESDVKLTLFNDSHQPIASMLMTGPNGAPRETDDDAVESSQGTSSTSPHARTAFPYVAPPTKETTSASDCLSAVMIGGTRVYGGLYGDLMPMESGGGFGQRACYRVEDAAAYSPSLDARSRVSGTEAAAGERTASSSASTVMPPWVLYDCVQRFFLRLHRSGIFGGDAAVAPTEGWRVSAHHVVQTEDAVFGVPVEVVCAVPRVYPSYRLPPWRHRLGLPAIPNGAPPCVCLRCETRQGGRLVSTGVYFFNRW,soluble
10,MAHHHHHHMEQDAASRPVTESEQTTTSYHGHTVSFLLLLYRRLEFESSGSTRPKAMLLRSDDTSPWPSPAPLSPVPSRPSSCRSSFSSLSVTSCISIISLLISSKTAVSRFTSSSWRLRRSSSCCCNSCAVAILLPLRAHGTTQPTGKKKKKKKEREKRKTQDAHHN,not soluble
11,MAHHHHHHMESGKNAHRLNRIFRKPKTMVAPRAWRPAADGEGERQQPFSGVSLQRINAMISELSEEERTRALAQQDPPTVVQEELAKRAARFGLTIERADAGNNEKTASSEITPEVQAVFQRRMERFGQSAAEEAMQKRVARFGNAATSAEGPGVELKLSEADREAMQRRQSRFGG,soluble
12,MAHHHHHHMESPRQEPLPQQPSELNTNAAAVLSTTTTESYVYTCRMCRHVLFMHHEILPHYPEPVGSGNKGFKYRGGGHASSQQQQGLHAAQEGGDVCTSYFLDPDISPWVAEESREVHQVSGGLDVMPDTIYCPNRKCNAKIGTQSWVGSQCSCGAWVTPAFKIHSRVVDKMPVAQ,not soluble
13,MAHHHHHHMESQKERGNAAYREKRYRDAINAYTAAIELDLTNVRMVATLRANQAAAKMELKEYSSALLDCEFAIQNGVNSAKLYARRARIHEALNNYDDALRDIQKASEMDGSYQREFQRTKASSKKAMRKDYYKILDLPPNESDDAQIKRAYKKACLRWHPDKWANAGPEEKTHAEKMFKDVGEAFSILSDAKKKRMYDNGMIDNAVEGAGESGFSGFPGQDEALMEMMNRMFFTGGGMSGGFGFNGFPQGRRQQYQQSYTFQFF,not soluble
14,MAHHHHHHMETVDALDYSELVALNQEEALRRVLASYPRIGLQATELGRARRIVQRALYHKRAGDAVFLAYTSNLISSGLRDTFACLARDRLIDGFISTAGGIEEDAIKCLGKTLVGQFSLDGRELRRCGVNRTGNLLVPNDNYCHFENFFMPVLKHLHELQRESRWETMTAPSEMIAAIGAALGCKHPETCSDSLLYWCYRNNIPVFSPALTDGSIGDMIYFYNYSKKGLVLDPIVDVVRLRELGCRNRRCDDSQGGNRSQNNNGRTTCIVLGGGLPKHHLLQNVRADTVVYVSTGLEVDASPSSCNVAEDRANGVLLDNCEVVRVHGDASFVFPLLLCKAETSADTHKDVAA,soluble
15,MAHHHHHHMEVVVKSIGTAFTVAVIPVLKDNYSYVIHDKATNTLAAVDVSVDIDPVIDYVRRLGGVDRTTDLRTILSTHKHHDHSGGNISLQKKLNAMGAFRIIGGANEPIPGVTEKVREGDHFSIGELKVDVLDAPCHTSGHVLYKVYHPQKAENGIALFTGDTMFVGGIGAFFEGDAVLMCSALRKVYNLNGACESSACDATDVQKRDNHTYIFPGHEYTVNFLRFSRDALPASHPDVSFVEAQLRRYTESVAGNVPTVPSTLAEEKRQNLFLRTCDEAFVRVMNKGETAVKLMDFLYNTCP,soluble
16,MAHHHHHHMFGTTRVWRNTFLTKSVATPPISVIRTGPRWWADPERMVRQKLMYFTLGVDQLPLRRTAVIQKDLHRFHMCKPPPRIGDTTGYKRSRAAQLTTWYRRIQYQEYHLQHLFTRHVWGLVRAYPGNTTKIQGKADDGYVGYDSVPYHRYNRTPLPFPAREIYGRRE,not soluble
17,MAHHHHHHMFLFRHSAEPMEAEEERHERVDSTTEPHNAATAAARKRRTSADVANGEVSREASGVAESFDETGGAPHTPREGTAPPPDVHDMLEHQRPRDEDDAEADMAAAALAASAPAPFHGVPTLPMPRTCDENPQAEADGNSTQRHRSYSHTSRFAAPSPRSTSGISRGRSYSLSGLSAAELADVHEQQYRRCTSIVKSARCISARRASSVNGVVGVIDDLYTLASRRSSAMTEAERVAVERMIENEYRRQEAAERSAQFALARESIIVNEELAREKATYVRRMHLNEELHARLAKSSRTRQERMTAAAQRRQEIEQERLRVLYGSMMEKDTRYHFRNPYEMMAAQRRYSIEMRSPAAIAPQRRASSPSTRASGNAQMSPRSAEGVANCTTEDRCTSSPATRRRSSTPSIAKSKPRQCLPLDAWKKPVPPRKDSCRSDISAEHRCRSPTDWRATAVLEHPRQWH,not soluble
18,MAHHHHHHMFNEAAVPFIQTARDNGLLFGGSDAPAMIDYTSEHGKSYHVRGSIFEVAPHFEVLNGIGYGAYGVVCAAVDLRLVASSVYYNEAMRTIEEEGRIVTRQRRGHDAPVYFRTRAVLDEAGRGGPVRVPHLYSEPFKRRTLARGEVSPFVAIKKVTKVFDDLVDGRRILREIKLLRYLQGHPNIVRLMEVGRPPAPTGASSSAAFDDIYLVTDLMDTDLGALLRSSQEIAMDQLRFIAYQLMKVLVYVHSSGVIHRDLKPGNILLNGNCDMKLCDFGLSRGGVPAWPHERTLTAVATAAESSAKELEDWGLFCWSSSAARGASSAPHAAKQPPLYSLTDYVVTRYYRAPELLIMGRYNHAIDMWSAGCILAEMVLRRPLFTGANYLSQLALILETPGLRGVPQTPEEAAALFEGGEEGKHFINDILFHKTARRRDPLTLSDQVHSQVLFHSTLFGFKVDVPISLGILIAKLLSFDPRKRPTALEALRDPFFWPLYDSRDEILRCPASDPSVAREQIDDIAAYQKAHPCVVVDESPVFTWEFDHRITSAQALRGLFEEECQISRDVQQQLERQQRLRSSPVVKCSERRTLERSLFSGASDGSSGGDGAH,not soluble
19,MAHHHHHHMFPASGSGPGVAGSALKGFKGMHHKPPNYPYPYVVGVDGAGEVESVGRKVTGLKAGDRVMFHSSLTNAHGGSLCEYAVMEESVAVPIPADGARPFSYEEAAAIPCATWTAYVALFDKLRIEPGRSIFVDGASGAVGSCAVQLAHHMGLYVFASCSPSNADYVRSIGADQVLNYHDGIEMVDQILDATEGYGVDYYLAVTNTQDAESFTDALRFGGAVCLLSGVLIPNSNVLFRRQLSVHYVFLNGLHGHPLTRPQLRYIGDQVAKLYQSGAFRLDVEVLPFAEAAKALDRSATGNVNHKKLIVQVASP,not soluble
20,MAHHHHHHMFSRHSLWVPAASHFPKFVEHFNRFLKASPHNVELQKALCYKEEETQLLIIQDPKARQPIFAMAFPFTVTSALCDGSRMGLGTFTSLVDTTTSLHVAAALLPTNDMHVSVSLQTNCVQPITAGEKVVMISRMDKFGKRLAFLSARLLRLDDVYENTVAPTAGRELEELERQLSQYQTLANGTHVKCILTGKS,not soluble
